In patent publication US20250188166A1 one finds IC50 of IL-18BPa on IFNγ secretion, PD-1^negative Parental NK-92 and IC50 of IL-18BPa on IFNγ secretion, PD-1^positive NK-92 data, which are given here for one substance.

Test [1] addresses IL-18 polypeptide SEQ ID NO: 30 (E6K, V11I, C38A, K53A, T63A, C76A, C127A) (human) (UniProt Q14116). The test is described as follows: cell-based or functional assay.
In test [2] the target is native IL-18 wild-type (SEQ ID NO: 1) (human) (UniProt Q14116). The test is described as follows: cell-based or functional assay.

For “His-tag human IL-18 binding protein isoform a (from UniProt O95998 31-194)”, in test [1], the IC50 of IL-18BPa on IFNγ secretion, PD-1^negative Parental NK-92 stood at 110 nM and the IC50 of IL-18BPa on IFNγ secretion, PD-1^positive NK-92 came out at 80.3 nM. Besides, in test [2], the IC50 of IL-18BPa on IFNγ secretion, PD-1^negative Parental NK-92 worked out at 2.97 nM and the IC50 of IL-18BPa on IFNγ secretion, PD-1^positive NK-92 was determined as 2.67 nM.
